# Data as given in paper PMC8528075.
# Target: SARS-CoV-2 S2P spike (prefusion-stabilized trimer) (SARS-CoV-2 Wuhan-Hu-1)
# Assay: cryo-EM structure
substance,measurement,value
2–36 Fab,stoichiometry N (Fabs per spike),3
